Target: HIV-1 reverse transcriptase (HIV-RT) (HIV-1, UniProt P04585;P04585 P04585:588-1147,P04585:588-1027)
Assay: footprint; chemical modification protection and modification interference; 200 mM KOAc, 50 mM Tris-HCl pH 7.7, 37 C
Settings: pseudoknot
Experimental: Affinity assays with labeled RNA and HIV-RT. Model RNAs for refinement of the 5' and 3' boundaries and for determination of the effect of substitutions were labeled during transcription with T7 RNA polymerase as described in Tuerk et al. (1990) except that a-32P-ATP was used, in reactions of 0.5 mM C,G, and UTP with 0.05 mM ATP. Synthetic oligonucleotides and phosphatased transcripts (as in Tuerk et al., 1990) were kinased as described in Gauss et al. (1987). All RNA-protein binding reactions were done in a "binding buffer" of 200 mM KOAc, 50 mM Tris-HCl pH 7.7, 10 mM dithiothreitol with exceptions noted for chemical protection experiments below. RNA and protein dilutions were mixed and stored on ice for 30 minutes then transferred to 37° C. for 5 minutes. […] Each reaction was suctioned through a pre-wet (with binding buffer) nitrocellulose filter and rinsed with 3 mls of binding buffer after which it was dried and counted for assays or subjected to elution and assayed for chemical modification. In comparisons of binding affinity, results were plotted and the protein concentration at which half-maximal binding occurred (the approximate Kd in conditions of protein excess) was determined graphically.
Selection of modified RNAs by HIV-RT. […] The extent of modification interference by ENU was determined by densitometric scanning of films using an LKB laser densitomer.

B1: lengthened ligand B RNA (ssRNA)
RNA: GGUCCGAAGUGCAACGGGAAAAUGCACUAUGAAAGAAUUUUAUAUCUCUAUUGAAAC
Does B1 bind?
Result: binds

From patent US5595877, “Methods of producing nucleic acid ligands” (NeXstar Pharmaceuticals, Inc.)
